Data on one molecule can be found in patent US20090156489A1 (Genentech, published 2009).

In experiment [1] the target is chicken Netrin-1 expressed in COS7 cells (chicken, UniProt Q90922 26-606). Kind of experiment: cell surface binding assay on transfected COS7 cells, fluorescence microscopy. Here is the method:
(§1) The resultant fusion proteins were expressed and used in binding assays over a panel of ˜400 putative cell surface transmembrane or GPI-anchored cell surface human proteins that were transiently expressed in COS7 cells. Purified ECD-Fc fusion proteins (0.5 μg/ml) or the crude baculovirus lysates were added to transiently transfected COS7 cells for 1-2 hours at room temperature. After 3 rinses with cold phosphate buffered saline (PBS), the bound protein was cross-linked to the cell surface with 4% paraformaldehyde. The bound Fc fusion protein was detected by biotinylated anti-human IgGFc and R-phycoerythrin-conjugated streptavidin (Jackson Immunoresearch). Cell surface staining was visualized by fluorescent microscopy and images were taken with the Penguin 800CL digital camera system (Pixera).
(§2) Although the NGL-1 and Netrin-G1 interaction appeared to be specific within the context of the screen, the classical Netrins and their known receptors, DCC and Unc5, were not included in the screen. Thus whether NGL-1 also interacts with Netrin-1 and its receptors was determined. Using the same cell surface binding assay, NGL-1, Netrin-G1, or Netrin-1 were expressed in COS7 cells (rows in FIG. 1a-i) and their ability to bind the IgG Fe fusion protein of NGL-1, Netrin-G1, or DCC (columns in FIG. 1a-i) was determined. […]

The target in experiment [2] is T1, DCC expressed on COS cells (human, UniProt P43146 26-1447).
T1 construct: whole, on cells
T1 sequence (P43146 26-1447): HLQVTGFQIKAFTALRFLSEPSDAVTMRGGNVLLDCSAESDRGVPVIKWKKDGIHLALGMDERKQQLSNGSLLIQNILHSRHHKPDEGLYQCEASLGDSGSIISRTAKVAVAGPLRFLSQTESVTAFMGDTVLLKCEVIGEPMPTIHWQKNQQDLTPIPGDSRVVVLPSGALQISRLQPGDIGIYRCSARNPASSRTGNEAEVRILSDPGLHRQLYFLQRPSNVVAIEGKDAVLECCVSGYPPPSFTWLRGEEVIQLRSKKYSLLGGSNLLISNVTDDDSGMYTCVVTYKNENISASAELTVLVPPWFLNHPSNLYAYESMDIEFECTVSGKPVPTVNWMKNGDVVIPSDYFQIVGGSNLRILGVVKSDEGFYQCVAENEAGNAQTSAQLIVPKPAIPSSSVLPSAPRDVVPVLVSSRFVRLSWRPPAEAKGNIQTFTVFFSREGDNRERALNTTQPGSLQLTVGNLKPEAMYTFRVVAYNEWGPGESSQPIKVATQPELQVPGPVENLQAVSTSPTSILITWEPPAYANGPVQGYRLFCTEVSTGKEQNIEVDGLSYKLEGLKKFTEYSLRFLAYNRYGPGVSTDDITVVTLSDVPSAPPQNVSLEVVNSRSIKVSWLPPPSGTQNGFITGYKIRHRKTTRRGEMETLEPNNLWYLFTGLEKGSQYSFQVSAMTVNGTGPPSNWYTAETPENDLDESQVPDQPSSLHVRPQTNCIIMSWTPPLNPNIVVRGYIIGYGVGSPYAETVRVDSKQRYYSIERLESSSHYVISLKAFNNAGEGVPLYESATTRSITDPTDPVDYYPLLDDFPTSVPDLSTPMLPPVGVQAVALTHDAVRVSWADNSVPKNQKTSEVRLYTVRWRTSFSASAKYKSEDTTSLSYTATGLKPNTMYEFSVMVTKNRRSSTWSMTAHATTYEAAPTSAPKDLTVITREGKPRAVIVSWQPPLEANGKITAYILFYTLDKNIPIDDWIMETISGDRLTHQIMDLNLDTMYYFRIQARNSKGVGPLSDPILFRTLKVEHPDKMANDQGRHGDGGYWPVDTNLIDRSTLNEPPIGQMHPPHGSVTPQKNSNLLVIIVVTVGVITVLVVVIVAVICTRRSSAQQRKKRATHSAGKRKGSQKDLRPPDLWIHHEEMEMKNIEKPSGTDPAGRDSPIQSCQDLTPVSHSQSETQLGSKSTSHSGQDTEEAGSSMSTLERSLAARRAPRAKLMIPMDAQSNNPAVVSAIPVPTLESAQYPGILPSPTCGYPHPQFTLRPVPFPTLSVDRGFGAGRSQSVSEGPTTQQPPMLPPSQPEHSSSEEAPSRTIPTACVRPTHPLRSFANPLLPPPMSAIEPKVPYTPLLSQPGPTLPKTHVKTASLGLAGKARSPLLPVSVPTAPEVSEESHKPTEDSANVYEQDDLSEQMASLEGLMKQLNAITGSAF
Briefly: cell surface binding assay on transfected COS7 cells, fluorescence microscopy (data not shown). Here is the method:
as §1, §2

B1: human Netrin-G1-Fc (Fc fusion, UniProt Q9Y2I2-1 29-409, looked up)
chain: HYDLCKTQIYTEEGKVWDYMACQPESTDMTKYLKVKLDPPDITCGDPPETFCAMGNPYMCNNECDASTPELAHPPELMFDFEGRHPSTFWQSATWKEYPKPLQVNITLSWSKTIELTDNIVITFESGRPDQMILEKSLDYGRTWQPYQYYATDCLDAFHMDPKSVKDLSQHTVLEIICTEEYSTGYTTNSKIIHFEIKDRFAFFAGPRLRNMASLYGQLDTTKKLRDFFTVTDLRIRLLRPAVGEIFVDELHLARYFYAISDIKVRGRCKCNLHATVCVYDNSKLTCECEHNTTGPDCGKCKKNYQGRPWSPGSYLPIPKGTANTCIPSISSIGTNVCDNELLHCQNGGTCHNNVRCLCPAAYTGILCEKLRCEEAGSCGS
notes: extracellular domain; also called Netrin-G1-Fc fusion protein; not shown: human IgG1 Fc region
For B1, the binding result in experiment [1] and in experiment [2] was “no binding” throughout.
